Results published in patent US20170355757A1 (Regeneron, published 2017).

T1: monkey C5-mmh (monkey, UniProt P01031 19-1676 (human entry), limits assumed)
T1 construct: recombinant, with C-terminal myc-myc-hexahistidine tag
T1 chain: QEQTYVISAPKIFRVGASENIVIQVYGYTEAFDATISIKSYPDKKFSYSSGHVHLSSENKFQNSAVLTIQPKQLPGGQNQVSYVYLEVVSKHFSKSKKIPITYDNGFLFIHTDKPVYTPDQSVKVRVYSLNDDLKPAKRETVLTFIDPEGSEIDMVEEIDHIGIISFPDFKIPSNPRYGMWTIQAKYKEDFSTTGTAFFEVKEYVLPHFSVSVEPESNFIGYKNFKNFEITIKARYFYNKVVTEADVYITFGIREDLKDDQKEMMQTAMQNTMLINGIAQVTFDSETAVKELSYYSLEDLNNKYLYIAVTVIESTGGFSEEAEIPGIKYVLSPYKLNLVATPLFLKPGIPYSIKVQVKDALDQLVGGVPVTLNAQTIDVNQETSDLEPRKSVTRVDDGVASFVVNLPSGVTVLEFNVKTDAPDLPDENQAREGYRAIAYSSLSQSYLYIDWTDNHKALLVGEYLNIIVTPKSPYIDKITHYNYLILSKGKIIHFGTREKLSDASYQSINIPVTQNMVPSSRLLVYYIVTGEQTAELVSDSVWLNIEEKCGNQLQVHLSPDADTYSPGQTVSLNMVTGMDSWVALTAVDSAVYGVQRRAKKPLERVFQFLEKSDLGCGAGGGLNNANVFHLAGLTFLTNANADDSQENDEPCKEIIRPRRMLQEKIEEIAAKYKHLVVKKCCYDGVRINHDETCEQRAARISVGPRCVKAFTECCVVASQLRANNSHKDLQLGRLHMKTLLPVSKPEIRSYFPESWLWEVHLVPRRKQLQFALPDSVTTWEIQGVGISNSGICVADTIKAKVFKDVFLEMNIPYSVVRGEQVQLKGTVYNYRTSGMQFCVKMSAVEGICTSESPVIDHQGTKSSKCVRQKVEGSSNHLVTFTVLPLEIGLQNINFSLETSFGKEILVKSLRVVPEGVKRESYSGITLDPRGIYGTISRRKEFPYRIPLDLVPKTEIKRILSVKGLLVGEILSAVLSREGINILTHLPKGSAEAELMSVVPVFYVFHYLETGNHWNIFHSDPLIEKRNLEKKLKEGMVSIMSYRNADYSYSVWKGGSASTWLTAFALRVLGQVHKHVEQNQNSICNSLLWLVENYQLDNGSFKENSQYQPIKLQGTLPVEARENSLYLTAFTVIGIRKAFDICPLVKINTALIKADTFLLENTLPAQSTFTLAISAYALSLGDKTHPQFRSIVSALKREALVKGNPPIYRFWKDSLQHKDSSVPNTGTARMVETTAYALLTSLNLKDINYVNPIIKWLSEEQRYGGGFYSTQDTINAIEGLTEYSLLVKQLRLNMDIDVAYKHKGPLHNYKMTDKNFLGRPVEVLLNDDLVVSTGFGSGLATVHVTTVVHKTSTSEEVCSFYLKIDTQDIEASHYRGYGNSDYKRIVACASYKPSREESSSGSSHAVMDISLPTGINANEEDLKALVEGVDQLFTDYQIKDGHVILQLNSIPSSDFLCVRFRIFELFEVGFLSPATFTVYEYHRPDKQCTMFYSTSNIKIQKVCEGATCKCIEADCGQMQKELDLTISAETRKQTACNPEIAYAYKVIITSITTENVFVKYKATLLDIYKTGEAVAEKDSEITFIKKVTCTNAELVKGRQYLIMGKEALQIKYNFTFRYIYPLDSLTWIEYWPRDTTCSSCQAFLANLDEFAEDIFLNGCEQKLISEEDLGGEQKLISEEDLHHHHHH


Assays:
[1] = molecular target: human C5 R885H-mmh (human, UniProt P01031 19-1676); assay: cell-based or functional assay
[2] = molecular target: T2, African green monkey C5 (African green monkey); assay: cell-based or functional assay
[3] = molecular target: human C5 R885C-mmh (human, UniProt P01031 19-1676); assay: cell-based or functional assay
[4] = molecular target: T3, human C5 (human, UniProt P01031 19-1676); assay: cell-based or functional assay
[5] = molecular target: T3, human C5; assay: cell-based or functional assay; remark: listed apart in the source
[6] = molecular target: T1, monkey C5-mmh; assay: SPR (Biacore), mAb captured, dissociation of monkey C5 at pH7.4 vs pH6.0, 37°C
[7] = molecular target: T1, monkey C5-mmh; assay: SPR (Biacore), mAb captured, dissociation of monkey C5 at pH7.4 vs pH6.0, 25°C
[8] = molecular target: T2, African green monkey C5; assay: cell-based or functional assay; remark: listed apart in the source
[9] = molecular target: Cynomolgus monkey C5 (cynomolgus monkey, UniProt A0A2K5U1T1 19-1676); assay: cell-based or functional assay
[10] = molecular target: T3, human C5; assay: SPR (Biacore), mAb captured, dissociation of human C5 at pH7.4 vs pH6.0, 37°C
Experimental: Effect of pH on the rate of dissociation of recombinant human C5 bound to purified anti-C5 monoclonal antibodies was determined using a real-time surface plasmon resonance biosensor using a Biacore T200 instrument. The Biacore sensor surface was first derivatized by amine coupling with a monoclonal mouse anti-human Fc antibody (GE, # BR-1008-39) to capture anti-C5 monoclonal antibodies expressed with human IgG4 Fc. All Biacore binding studies were performed using two running buffers PBS-T, pH7.4 (0.01M Na₂HPO₄/NaH₂PO₄, 0.15M NaCl, 0.05% v/v Tween-20, adjusted to pH7.4) and PBS-T, pH6.0 (0.01M Na₂HPO₄/NaH₂PO₄, 0.15M NaCl, 0.05% v/v Tween-20, adjusted to pH6.0). […] Binding dissociative half-lives (t %) were calculated from kd as: […]

| Binder | IC50, inhibition of CDC of Daudi cells, C5 depleted human serum and 6.6 nM C5 Variant R885H [1] [nM] | IC50, inhibition of CDC of Daudi cells, 1.66% African Green monkey serum [2] [nM] | IC50, inhibition of CDC of Daudi cells, C5 depleted human serum and 6.6 nM C5 Variant R885C [3] [nM] | IC50, inhibition of CDC of Daudi cells, 1.66% human serum [4] [nM] | t½ Ratio pH7.4/pH6.0 [6] | t½ Ratio pH7.4/pH6.0 [7] | t½ Ratio pH7.4/pH6.0 [10] | Human AP % Max Inhibition, hemolysis assay, NHS [5] [%] | Human AP IC50, hemolysis assay, NHS [5] [nM] | Human CP % Max Inhibition, hemolysis assay, NHS [5] [%] | Human CP IC50, hemolysis assay, NHS [5] [nM] | AGM AP % Max Inhibition, hemolysis assay, 5% serum [8] [%] | AGM CP % Max Inhibition, hemolysis assay, 5% serum [8] [%] | AGM Serum AP IC50, hemolysis assay, 5% serum [8] [nM] | AGM Serum CP IC50, hemolysis assay, 5% serum [8] [nM] | Cyno AP % Max Inhibition, hemolysis assay, 5% serum [9] [%] | Cyno CP % Max Inhibition, hemolysis assay, 5% serum [9] [%] | Cyno Serum AP IC50, hemolysis assay, 5% serum [9] [nM] | Cyno Serum CP IC50, hemolysis assay, 5% serum [9] [nM] |
| --- | --- | --- | --- | --- | --- | --- | --- | --- | --- | --- | --- | --- | --- | --- | --- | --- | --- | --- | --- |
| H4H12169P (antibody, human IgG4, V domains shown, H4H: human IgG4 Fc with S108P hinge mutation) VH: EVQLVESGGGLAQPGGSLRLSCAASGFTFRSYAMSWVRQAPGKGPEWVSGIGGNGVTTYYADSVKGRFTISRDNSKNTLFLQMNSLRAEDTAVYYCVQGGLGGYFTGYWGQGTLVTVSS VL: DIQMTQSPSSLSASVGDRVTITCRASQSISTYLNWYQQNPGKAPKLLIFDASSLQSGVPSRFSGSGSGTDFTLTIRGLQPEDFATYYCQQSYSAPLTFGGGTKVEIK | 1.3 | 2.9 | 0.67 | 1.7 | 2 | 3.4 |  | 44.5 | 20 | 98.3 | 2.36 | 45.7 | 43.3 | 91.5 | 34.4 | 96.3 | 92.8 | 7.95 | 19.9 |
| H4H11686N (antibody, human IgG4, V domains shown, tested with H4H prefix (human IgG4 Fc with S108P hinge mutation); also called H2M11686N) VH: QVQLVESGGGLVKPGGSLRLSCAASGFTFSDYYMSWIRQAPGKGLEWVSYISSSGNTIKYADSMKGRFTISRDNAKKSLFVEMNSLRAEDTAVYYCARYKSSSDYFDHWGQGTLVTVSS VL: EIVLTQSPATLSLSPGERATLSCRASQSVRSYLAWYQQKPGQAPRLLIYDASNRATAIPARFSGSGSGTDFTLTISSLEPEDLAVYYCQQSGNWPLTFGGGTKVEIK | 1.1 | 4.4 | 0.45 | 1.5 | 0.5 | 0.37 | 0.8 | 76.2 | 13 | 97.4 | 3.09 | 50.4 | 49.3 | 163 | 48.2 | 98.7 | 94.5 | 9 | 14.1 |
| H4H12167P (antibody, human IgG4, V domains shown, H4H: human IgG4 Fc with S108P hinge mutation) VH: QVQLVESGGGLVKPGGSLRLSCAASGFTFSDSYMSWIRQAPGKGLEWISYIGSSGNTFYYADSVKGRFTISRDNANNLLYLQMTSLRAEDTAVYYCAREEGDFWSAVDSWGQGTLVTVSS VL: DIQLTQSPSFLSASVGDRVTITCWASQGISSYLAWYQQKPGKAPKLLIHTASTLQSGVPSRFSGSGSGTEFTLTISNLQPEDFATYYCQQLNSYPFTFGPGTKVDIK | 1.9 | 3.5 | 1 | 2.5 | 4.4 | 9.2 | 0.2 | 64.8 | 15.5 | 99.9 | 3.68 | 53.4 | 90.5 | 69.5 | 69.5 | 98.3 | 100 | 7.6 | 21.3 |

More lines, main results first:

| IC50, inhibition of CDC of Daudi cells, C5 depleted human serum and 6.6 nM C5 Variant R885H [1] [nM] | IC50, inhibition of CDC of Daudi cells, 1.66% African Green monkey serum [2] [nM] | IC50, inhibition of CDC of Daudi cells, C5 depleted human serum and 6.6 nM C5 Variant R885C [3] [nM] | IC50, inhibition of CDC of Daudi cells, 1.66% human serum [4] [nM] | t½ Ratio pH7.4/pH6.0 [6] | t½ Ratio pH7.4/pH6.0 [7] | t½ Ratio pH7.4/pH6.0 [10] | Binder | Human AP % Max Inhibition, hemolysis assay, NHS [5] [%] | Human AP IC50, hemolysis assay, NHS [5] [nM] | Human CP % Max Inhibition, hemolysis assay, NHS [5] [%] | Human CP IC50, hemolysis assay, NHS [5] [nM] | AGM AP % Max Inhibition, hemolysis assay, 5% serum [8] [%] | AGM CP % Max Inhibition, hemolysis assay, 5% serum [8] [%] | AGM Serum AP IC50, hemolysis assay, 5% serum [8] [nM] | AGM Serum CP IC50, hemolysis assay, 5% serum [8] [nM] | Cyno AP % Max Inhibition, hemolysis assay, 5% serum [9] [%] | Cyno CP % Max Inhibition, hemolysis assay, 5% serum [9] [%] | Cyno Serum AP IC50, hemolysis assay, 5% serum [9] [nM] | Cyno Serum CP IC50, hemolysis assay, 5% serum [9] [nM] |
| --- | --- | --- | --- | --- | --- | --- | --- | --- | --- | --- | --- | --- | --- | --- | --- | --- | --- | --- | --- |
| 2.1 | 3.5 | 1.3 | 2.7 | 2.8 | ≤ 9.1 | ≤ 0.4 | H4H12176P2 (antibody, human IgG4, V domains shown, H4H: human IgG4 Fc with S108P hinge mutation) VH: EVQLVESGGGLVQPGGSLRLSCAASGFHSNRYWMDWVRQAPGKGLEWVANIKQDGSEENYVDSVKGRFTISRDNAKNSLYLQMNSLRAEDTAVYYCARDRSTSWVPYWFFDLWGRGTLVTVSS VL: not shown | 69.9 | 16.5 | 94.1 | 4.58 | 83.2 | 91 | 47.7 | 30.4 | 99.3 | 97.5 | 7.7 | 14.7 |
| 2.3 | 2 | 0.86 | 1.5 | 4 | 3.8 | 1 | H4H12168P (antibody, human IgG4, V domains shown, H4H: human IgG4 Fc with S108P hinge mutation) VH: QVQLVESGGGVVQPGGSLRLSCAASGFTFGGHAMHWVRQAPGKGLEWLAVISSDGSNKQYADSVKGRFTISRDNPKNTLYLQMNSLRVGDTAIYYCAKEVAPRYYYYGLDVWGQGTTVTVSS VL: DIQMTQSPSSLSASVGDRVTITCRASQDISNFLAWYQQKPGKVPKLLIYTASTLQSGVPSRFSGSGSGTDFTLTVSSLQPEDVATYYCQKYAGALTFGPGTKVDIK | 66.2 | 28.5 | 97.5 | 3.33 | 88.2 | 90.8 | 22.5 | 28 | 99.7 | 99 | 5.45 | 10.3 |
